The data set can be described thus: yeast display, Sf9 membrane polyspecificity reagent, FACS + sequencing; frameworks hold sequencing errors. In outline: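 Galactose-induced (36–48 hours) yeast carrying a synthetic nanobody display library were exposed to 10% biotinylated, detergent-solubilized Sf9 membrane reagent at 4 °C for 1 hour. FACS followed streptavidin microbead enrichment, using low and high (top ~1%) gates for expression (anti-HA) and reagent binding (streptavidin). Colony PCR, MiSeq 2 × 250 sequencing and CDR-length filtering followed. Labels for polyreactivity reflect the gate of origin.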
As for “QVQLVESGGGLVQAGGSLRLSCAASGSIFFPYAMGWYRQAPGKERELVAAISWRGGITYYADSVKGRFTISRDNAKNTVYLQMNSLKPEDTAVYYCAADGPYTGDGALDYWGQGTQVTVSS”, the “polyreactivity (PSR sort gate)” value was “high polyreactivity”. With “QVQLVESGGGLVQAGGSLRLSCAASGSIFSVYAMGWYRQAPGKERELVAAISRGDSTYYADSVKGRFTISRDNAKNTVYLQMNSLKPEDTAVYYCAKAYLRYYDGPYDYWGQGTQVTVSS”, the “polyreactivity (PSR sort gate)” value is “low polyreactivity”. As to “QVQLVESGGGLVQAGGSLRLSCAASGSIIKWNAMGWDRKAPGQEREFVASITRSGGSTYYADSVKGRITISRDNAKNTVYLQMNSRKPEDTAVFYCARSYGWYRWAGYDYWGKGTQVTVSS”, the “polyreactivity (PSR sort gate)” value is “high polyreactivity”. Consider “QVQLVESGGGLVHAGGSLRLSCAPSAFTFAYYAMGWYRQAPGKEREFVAAITKGGGSTNYADSVKGRFTISRDNAKNTVYLQMYSLKPEDTAVYYSNADYFVWYIGRVFSRYGYWGQGTQVTVSS”, for which the “polyreactivity (PSR sort gate)” value is recorded as “low polyreactivity”. Take “QVQLVESGGGLVQAGGSLRLSCAASGTFGVYAMGWYRQAPGKERELVAVITDSGGTNYADSVKGRFTISRDNAKNTVYLQMNSLKPEDTAVYYCNTDAGDYYGENYWGQGTQVTVSS”: the “polyreactivity (PSR sort gate)” value is listed as “low polyreactivity”. Regarding “QVQLVESLGGLVQAGGSLRLSCAASGFTFTNYAMGWYRQAPGKERELVAAINSSGSTNYADSVKGRFTISRDNAKNTVYLQMNSLKPEDTAVYYCAVDYSYWVHGFWDDYDYWGQGTQVTVSS”, the “polyreactivity (PSR sort gate)” value is given as “low polyreactivity”. In the case of “QVQLVESGGGLVQAGGSLRLSCAASGSTFSLYAMGWSRQAPGKERELVAAISRSGGRTYYADSVKGRFTISRDNAKNTVYLQMNSLKPEDTAVYYCAADSTSGYYWGQGTQVTVSS”, the “polyreactivity (PSR sort gate)” value is given as “high polyreactivity”. For “QVQLAESGAGLVQAGGSLRLSCAASGFTFFPYAMGWYIQAPGKERELVAGITYNGGSTYYADSVKGRFTISRDNAKNTVYLQMNSLKPEDTAVYYCNAGRIGGFDWGQGTQVTVSS”, the “polyreactivity (PSR sort gate)” value is on record as “low polyreactivity”.

Regarding “QVQLVESGGGLVQAGGSLRLSCAASGGIFYYYAMGWYRQAPGKERELVATISNGGSTYYADSVKGRFTISRDNAKNTVYLQMNSLKPEDTAVYYCAADSSSDQYRYFPFDHWGQGTQVTVSS”, the “polyreactivity (PSR sort gate)” value is given as “high polyreactivity”.

For the sequence “QVQLVESGGGLVQEGGSLRLSCAASGFTFPYYAMGWYRQAPGKERELVAAITSSGTITYYADSVKGRFTISRDNAKNTVYLQMNSLKPEDTAVYYCAARFSSTRYLQWYYYWGQGTQVTVSS”, the “polyreactivity (PSR sort gate)” value was “high polyreactivity”.

In the case of “QVQLVESGGGLVQAGGSLRLSCAASGFTSLIYAMGWSRQAPGKESELVATITWGGGSTYADSVKGRFTISRDNAKNTVYLQMNSLKPEDTAVYYCNADIYDSWDYATVYSDRYDYWGQGTQVTVSS”, the “polyreactivity (PSR sort gate)” value is on record as “low polyreactivity”.

Take “QVQLVESGGGLVQAGGSLRLSCAASGRIFSANAMGWYRQAPRKERELVAGIDSGGSTNYADSVKGRFTISRDNSKNTVYLQMNSLKPEDTAVYYCNAEDHKYEYDSWGQGTQVTVSS”: the “polyreactivity (PSR sort gate)” value was “low polyreactivity”. Turning to “QVQLVESGGGLVQAGGSLRLSCAASGFTFFSKAMGWYRQAPGKERELVAAITTNGGSTYYADSVKGRFTISRDNAKNTVYLQMNSLKPEETAVYYCAADYSLPWSWLYEYWGQGTQVTVSS”, the “polyreactivity (PSR sort gate)” value was “low polyreactivity”. With “QVQLVESGGGLVQAGGSLRLSCAASGRIFARNAMGWYRPEPGKERELVAGITWSTASTYYADSVKGRFTISLDNAKNTVYLQMNSLKPEDTAVYYCAADSYYYYDYWYVYLYDYWGQGTQVTVSS”, the “polyreactivity (PSR sort gate)” value is given as “high polyreactivity”. For “QVQLVESGGGLVQAGGSLRLSCAASGNTFVTYAMGWYRQAPGKVRELVATISSSGGSTYYADSVKGRFTISRDNAKNTVYLQMNSLKPEDTAVYYCAKQAWAYALYTNFYSGDYGYWGQGTQVTVSS”, the “polyreactivity (PSR sort gate)” value was “low polyreactivity”. As for “QVQLVESGGGLVQAGGSLRLSCAASGRTFWQYAMGWYRQAPGKERELVAAIRYSGGSTYYADSVKGRFTISRDNAKNTVYLQMNSLKPEDTAVYYCAKRLKPGFYYWGQGTQVTVSS”, the “polyreactivity (PSR sort gate)” value is “high polyreactivity”.

(Values after the nanobody polyreactivity screen of Harvey et al. (2022).)
